Here are results for 167 variants from the RNAGym collection of RNA variant scans (doi:10.7554/elife.80360).

Sequences and labels used below:
B1: Hairpin Ribozyme (parent)
chain: GUCCUCUUUCACGUGCGCGUGAAAGAGAGAAGUGAACCAGAGAAACACACGUUGUGGUAUAUUACCUGGUA

The variants in this series derive from B1. The series can be described thus: self-cleavage, relative activity (ratio to wild type); higher = more cleavage; co-transcriptional.
For the variant U33A A36U, the self-cleavage was 0.0862.

For the variant U8G A59C, the self-cleavage is 0.136. The figure for G1U A11C is 0.0545; for C3A G13A it is 0.628. G54A A61G: the self-cleavage turned out to be 0.397. The figure for C65U U67A is 0.309; for A44G A49C it is 0.0332. In the case of A44G A49G it was 0.126; in that of C3U U60A, 0.446; in that of G15C C38A, 0.22. The figure for C12U G68C is 0.191; for U7A C37G it is 0.342; for A43U U60C it is 0.221. With U5G G15A, the self-cleavage stood at 0.407. In the case of C4U A45G it was 0.199; in that of U20A A39C, 0.403; in that of C38U A61U, 0.164. In the case of A47U G57U it was 0.0955; in that of G21A A24U, 0.513; in that of G25C G57U, 0.216. The figure for C48U U55C is 0.132. With G19U U33A, the self-cleavage came to 0.237. The figure for A28G A30G is 0.218; for U33A U52C it is 0.122.

A28U A31U: the self-cleavage worked out at 0.138. The figure for C3U U14A is 0.495; for A49C A71U it is 0.27. The figure for U2C C50U is 0.252; for C3U G56C it is 0.182.

In the case of G19C A24C, the self-cleavage is 0.639. In the case of U8G A47G it was 0.0909; in that of G17U G40U, 0.181. The figure for U55C is 0.25. The figure for U14C A39U is 0.387; for C46G A59U it is 0.13; for A22U U52G it is 0.883.

As for C50U C65U, the self-cleavage turned out to be 0.199. In the case of C4A A31U it was 0.245. As for G27C U62G, the self-cleavage came out at 0.161.

Consider C6G A45G, for which the self-cleavage came to 0.0674. On to A41G, for which the self-cleavage is 0.913. In the case of A11G A64U it was 0.111. On to A23C U63A, for which the self-cleavage was found to be 0.238.

Regarding C3A G21A, the self-cleavage came to 0.567. In the case of C4A U14G it was 0.0473. In the case of A24U G69U it was 0.192; in that of C10U C48A, 0.104.

With U14G C37G, the self-cleavage is 0.276. The figure for A30U G68C is 0.118; for U2A A22U it is 0.208. The figure for C48A G68C is 0.246; for U9A A11C it is 0.478; for A22G G42U it is 0.288. The figure for A23G A44U is 0.0965; for G21A G32U it is 0.0748; for A28G A61C it is 0.434. With U20G G42C, the self-cleavage was found to be 0.206. As to U33C G56C, the self-cleavage turned out to be 0.167. In the case of G13U C50U it was 0.268; in that of C16U A43C, 0.174; in that of C18U A59U, 0.176.

C16G A22C: the self-cleavage came out at 0.604.

A22U G51U: the self-cleavage came out at 0.761. The figure for U33G U52A is 0.17; for G29U G34C it is 0.0691; for G13U U58C it is 0.919. In the case of C37A A41C it was 0.365; in that of C10U U20G, 0.498. The figure for A36G G54C is 0.544; for A49C U60C it is 0.165; for G13U U33A it is 0.105.

On to A24U A43G, for which the self-cleavage was 0.159. The figure for A26U A28G is 1; for A61C C65G it is 0.189; for U14G G29U it is 0.151.

With A45U U62G, the self-cleavage is 0.178. The figure for G34C C37A is 0.898; for A24C A64G it is 0.503; for G27U A71C it is 0.904. The figure for A35G G57C is 0.268; for U2C A39U it is 0.249; for C16G U52A it is 1.09. The figure for G1C G40U is 0.202; for A22C A43C it is 0.061. In the case of U7G C12A, the self-cleavage was found to be 0.732. Consider G21C A23C, for which the self-cleavage was 0.422.

Consider G1A G29A, for which the self-cleavage worked out at 0.157. Turning to C4U G19C, the self-cleavage worked out at 0.219.

As for G15U A49U, the self-cleavage is 0.0651. The figure for C38G A64G is 0.118. The figure for U5A A49C is 0.124; for A23U G27C it is 0.148.

Turning to A11G C37U, the self-cleavage was determined as 0.357. In the case of C4U C66G it was 0.217; in that of C3U C16A, 0.462. In the case of G34U A35C it was 1.2; in that of G1U A31G, 0.0331; in that of A22C A49U, 0.204. The figure for G19A U33C is 0.0941; for C37U C66G it is 0.195. For G1U C48G, the self-cleavage was 0.0484. The figure for G34C A49G is 1.42; for C3G U14C it is 0.238. The figure for G17C G34C is 1.16; for G34C U58G it is 1.09. In the case of A43U G51U it was 0.0946; in that of A36G A64G, 0.492; in that of C18G G68U, 0.171. U20C G68U: the self-cleavage was determined as 0.257. The figure for C10U G54U is 0.452. As to A35C C46A, the self-cleavage turned out to be 0.0748.

As to U55A U62C, the self-cleavage is 0.229. The figure for U14G G51C is 0.734; for A24G U52C it is 0.762; for U14G A36G it is 1.11. On to U9G C37A, for which the self-cleavage stood at 0.117.

Take U20C G40U: the self-cleavage turned out to be 0.19. The figure for G15U C46U is 0.187; for C46G it is 0.15. The figure for C3G U33C is 0.143. In the case of A36C C37A it was 0.185; in that of G25U G56C, 0.17. With A26C G68A, the self-cleavage was found to be 0.117.

Take U8A A49C: the self-cleavage was determined as 0.165.

Turning to C3G A24G, the self-cleavage was found to be 0.294. The figure for A43G A47C is 0.172; for C16U C65G it is 0.26; for U8A A44C it is 0.213.

On to G15C U53A, for which the self-cleavage turned out to be 0.792. Take G21A C37U: the self-cleavage came out at 0.538. For A41U A44C, the self-cleavage is 0.115. Take U53A U58G: the self-cleavage worked out at 0.603.

Turning to G27C U70G, the self-cleavage stood at 0.122.

As to U5C C37A, the self-cleavage was 0.178. Consider G40A A64G, for which the self-cleavage came out at 0.119. As to U52G A61U, the self-cleavage is 0.0725. In the case of A39U G56C, the self-cleavage stood at 0.169. In the case of C12A C18A it was 0.812; in that of A59U G69U, 0.191; in that of A23G G69A, 0.369.

For G1C A22C, the self-cleavage was found to be 0.274. The figure for A49G C50U is 0.129.

Consider A24U A47U, for which the self-cleavage was determined as 0.144. The figure for G15A A28G is 0.978. Consider C10U U55A, for which the self-cleavage amounted to 0.213. The figure for G42U A71U is 0.217. On to A36C U55C, for which the self-cleavage was found to be 0.0703. For G32U A43C, the self-cleavage is 0.0806. Regarding C12U C16U, the self-cleavage came out at 0.916. The figure for C10G A35U is 0.517; for G29U U58G it is 0.168. With C10A G25C, the self-cleavage worked out at 0.227. In the case of A39G U60A it was 0.228; in that of G15A A49U, 0.149; in that of U7G A71C, 1.35. The figure for G21U G42U is 0.285.

With U9C G21U, the self-cleavage turned out to be 0.695. In the case of G19U A26G it was 0.849; in that of G19U A26C, 0.238.

Turning to A22C C48G, the self-cleavage was 0.138.

For G42U G57A, the self-cleavage was 0.187. In the case of G19A A43C it was 0.15; in that of U58C C66G, 0.154. In the case of A23C G56U it was 0.1; in that of U14A G54C, 0.338. In the case of U2A A30C it was 0.162; in that of C6A G34A, 0.817.
